The Immune Epitope Database (IEDB)

Experiments:
Assay in all cases: IEDB peptide-MHC binding, purified MHC/competitive/fluorescence; filed as Kd, often an IC50 or EC50 that approximates it; ≥ and ≤ were set here for values at or beyond the usual limits of such assays
Conditions in all cases: source organism: Salmonella enterica subsp. enterica serovar Typhi
[1] = molecular target: HLA-B*51:01
[2] = molecular target: HLA-B*15:01
[3] = molecular target: HLA-B*15:17
[4] = molecular target: HLA-A*01:01
[5] = molecular target: HLA-B*08:01
[6] = molecular target: HLA-A*03:19
[7] = molecular target: HLA-B*57:01
[8] = molecular target: HLA-A*29:02
[9] = molecular target: HLA-B*48:01

SVIDHIHYM
Kd [1]: ≥ 20 µM
Kd [2]: 145 nM
Kd [3]: 50 nM
Kd [4]: ≥ 20 µM
Kd [5]: ≥ 20 µM
Kd [6]: 982 nM
Kd [7]: 1530 nM
Kd [8]: 1.2 nM
Kd [9]: ≥ 20 µM
